# Measurements from publication PMC2720833 (Journal of molecular biology, 2009).
# Tests used:
# Assay in all cases: ITC
# [1] = molecular target: SOCS6 box/elonginBC ternary complex (murine | human | mouse, UniProt Q15370 1-118; P83940 17-112)
# [2] = molecular target: SOCS1 box/elonginBC ternary complex (murine | human | mouse, UniProt Q15370 1-118; P83940 17-112)
# [3] = molecular target: SOCS5 box/elonginBC ternary complex (murine | human | mouse, UniProt Q15370 1-118; P83940 17-112)
# [4] = molecular target: SOCS4 box/elonginBC ternary complex (murine | human | mouse, UniProt Q15370 1-118; P83940 17-112)
# [5] = molecular target: SOCS2 box/elonginBC ternary complex (murine | human | mouse, UniProt Q15370 1-118; P83940 17-112)
# [6] = molecular target: SOCS7 box/elonginBC ternary complex (murine | human | mouse, UniProt Q15370 1-118; P83940 17-112)
# [7] = molecular target: CIS box/elonginBC ternary complex (murine | human | mouse, UniProt Q15370 1-118; P83940 17-112)
# [8] = molecular target: SOCS3 box/elonginBC ternary complex (murine | human | mouse, UniProt Q15370 1-118; P83940 17-112)
binder,measurement,setting,value
"GST-Cullin5 (NTD), N-terminal domain of murine cullin5 (Met1-Leu385) with V341R and L345D (domain or fragment) MATSNLLKNKGSLQFEDKWDFMHPIVLKLLRQESVTKQQWFDLFSDVHAVCLWDDKGSSKIHQALKEDILEFIKQAQARVLSHQDDTALLKAYIVEWRKFFTQCDILPKPFCQLEVTLLGKQSSNKKSNMEDSIVRKLMLDTWNESIFSNIKNRLQDSAMKLVHAERLGEAFDSQLVIGVRESYVNLCSNPEDKLQIYRDNFEKAYLDSTERFYRTQAPSYLQQNGVQNYMKYADAKLKEEEKRALRYLETRRECNSVEALMECCVNALVTSFKETILAECQGMIKRNETEKLHLMFSLMDKVPNGIEPMLKDLEEHIISAGLADMVAAAETITTDSEKYREQLDTLFNRFSKLVKEAFQDDPRFLTARDKAYKAVVNDATIFKL",Kd,[1],~10 nM
same,stoichiometry N,[1],~1
same,Kd,[2],1000 nM
same,stoichiometry N,[2],~1
same,Kd,[3],~10 nM
same,stoichiometry N,[3],~1
same,Kd,[4],~10 nM
same,stoichiometry N,[4],~1
same,Kd,[5],~10 nM
same,stoichiometry N,[5],~1
same,Kd,[6],~10 nM
same,stoichiometry N,[6],~1
same,Kd,[7],~10 nM
same,stoichiometry N,[7],~1
same,stoichiometry N,[8],~1
